Reference: paper PMC3583667 (Molecular Biology of the Cell, 2013)
Read-outs that look alike come from different tables or passages of the source.

What was measured:
Assay in all cases: co-IP
EGFP–Rab11-FIP1B [1] = target: T1, EGFP–Rab11-FIP1B (UniProt Q6WKZ4-4 1-1283)
T1 sequence (looked up): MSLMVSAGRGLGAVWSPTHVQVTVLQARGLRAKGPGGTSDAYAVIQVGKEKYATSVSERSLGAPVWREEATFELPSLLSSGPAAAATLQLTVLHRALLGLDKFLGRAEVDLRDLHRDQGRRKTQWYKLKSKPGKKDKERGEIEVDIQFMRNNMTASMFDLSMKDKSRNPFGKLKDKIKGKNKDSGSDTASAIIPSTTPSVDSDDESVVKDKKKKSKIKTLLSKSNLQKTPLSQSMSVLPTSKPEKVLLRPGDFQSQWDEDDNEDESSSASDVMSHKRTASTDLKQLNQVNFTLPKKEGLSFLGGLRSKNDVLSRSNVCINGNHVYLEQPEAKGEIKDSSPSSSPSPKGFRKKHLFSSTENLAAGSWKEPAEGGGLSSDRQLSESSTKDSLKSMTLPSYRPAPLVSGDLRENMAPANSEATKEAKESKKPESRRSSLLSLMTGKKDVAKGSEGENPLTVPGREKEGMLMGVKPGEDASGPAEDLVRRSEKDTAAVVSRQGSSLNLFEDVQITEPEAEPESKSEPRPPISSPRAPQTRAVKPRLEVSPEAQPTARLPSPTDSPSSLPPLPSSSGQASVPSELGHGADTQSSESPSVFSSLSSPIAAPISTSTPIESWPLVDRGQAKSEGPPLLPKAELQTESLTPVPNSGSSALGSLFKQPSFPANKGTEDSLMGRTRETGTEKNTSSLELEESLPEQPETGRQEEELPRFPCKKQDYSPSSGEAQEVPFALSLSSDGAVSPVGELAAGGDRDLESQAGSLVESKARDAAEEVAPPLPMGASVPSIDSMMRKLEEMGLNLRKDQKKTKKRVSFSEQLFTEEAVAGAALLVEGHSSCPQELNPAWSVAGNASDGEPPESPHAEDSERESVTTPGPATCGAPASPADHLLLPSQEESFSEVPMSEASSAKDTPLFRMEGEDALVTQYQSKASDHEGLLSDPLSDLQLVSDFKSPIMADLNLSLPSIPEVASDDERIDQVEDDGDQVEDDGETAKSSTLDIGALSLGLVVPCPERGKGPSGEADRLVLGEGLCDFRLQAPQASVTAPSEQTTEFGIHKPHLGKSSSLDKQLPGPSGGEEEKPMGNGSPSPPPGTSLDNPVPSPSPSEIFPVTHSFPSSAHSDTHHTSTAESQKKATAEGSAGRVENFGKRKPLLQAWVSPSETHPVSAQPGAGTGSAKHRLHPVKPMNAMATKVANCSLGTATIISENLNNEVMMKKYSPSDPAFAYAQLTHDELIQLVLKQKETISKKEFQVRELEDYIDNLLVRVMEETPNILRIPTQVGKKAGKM

EGFP–Rab11-FIP1A [2] = target: T2, EGFP–Rab11-FIP1A (UniProt Q6WKZ4-1 1-612)
T2 sequence (looked up): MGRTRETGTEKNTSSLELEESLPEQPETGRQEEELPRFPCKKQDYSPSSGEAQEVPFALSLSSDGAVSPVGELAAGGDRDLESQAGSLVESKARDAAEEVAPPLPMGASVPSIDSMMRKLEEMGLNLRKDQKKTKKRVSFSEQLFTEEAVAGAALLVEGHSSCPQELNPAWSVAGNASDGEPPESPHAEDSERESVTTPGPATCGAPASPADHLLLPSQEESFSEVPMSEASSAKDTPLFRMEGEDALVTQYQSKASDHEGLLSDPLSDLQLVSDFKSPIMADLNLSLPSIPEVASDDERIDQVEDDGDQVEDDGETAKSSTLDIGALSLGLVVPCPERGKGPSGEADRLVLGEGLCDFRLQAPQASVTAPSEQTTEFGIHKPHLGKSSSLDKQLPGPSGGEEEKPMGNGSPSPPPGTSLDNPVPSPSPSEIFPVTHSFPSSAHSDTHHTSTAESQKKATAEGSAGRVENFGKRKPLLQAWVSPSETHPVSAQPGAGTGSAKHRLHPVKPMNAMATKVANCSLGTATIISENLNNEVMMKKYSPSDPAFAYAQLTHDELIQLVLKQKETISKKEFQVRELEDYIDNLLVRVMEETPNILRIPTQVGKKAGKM

EGFP–Rab11-FIP1C [3] = target: T3, EGFP–Rab11-FIP1C (UniProt Q6WKZ4-3 1-649)
T3 sequence (looked up): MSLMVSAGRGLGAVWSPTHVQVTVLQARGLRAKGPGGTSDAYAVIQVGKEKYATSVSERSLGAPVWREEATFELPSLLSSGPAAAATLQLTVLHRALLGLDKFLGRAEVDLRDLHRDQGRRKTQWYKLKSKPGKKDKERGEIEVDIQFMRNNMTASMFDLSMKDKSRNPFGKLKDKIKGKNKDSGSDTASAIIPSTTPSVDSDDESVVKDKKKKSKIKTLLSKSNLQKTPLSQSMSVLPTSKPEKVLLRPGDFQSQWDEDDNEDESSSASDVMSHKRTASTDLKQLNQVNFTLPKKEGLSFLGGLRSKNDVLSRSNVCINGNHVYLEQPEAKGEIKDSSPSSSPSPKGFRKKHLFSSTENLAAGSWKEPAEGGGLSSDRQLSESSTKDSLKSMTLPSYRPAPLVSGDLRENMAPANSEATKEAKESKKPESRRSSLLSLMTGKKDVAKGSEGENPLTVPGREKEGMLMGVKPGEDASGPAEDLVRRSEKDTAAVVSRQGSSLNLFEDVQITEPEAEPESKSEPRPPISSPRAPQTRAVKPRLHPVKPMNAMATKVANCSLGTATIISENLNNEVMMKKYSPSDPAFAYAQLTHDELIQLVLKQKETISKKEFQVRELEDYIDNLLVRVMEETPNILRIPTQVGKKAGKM

EGFP–Rab11-FIP1B [4] = target: T1, EGFP–Rab11-FIP1B; remark: listed apart in the source
EGFP–Rab11-FIP1A [5] = target: T2, EGFP–Rab11-FIP1A; remark: listed apart in the source
EGFP–Rab11-FIP1C [6] = target: T3, EGFP–Rab11-FIP1C; remark: listed apart in the source

percentage of total FIP1A recovered on the beads (EGFP–Rab11-FIP1B [1]): 13.4%
percentage of total FIP1A recovered on the beads (EGFP–Rab11-FIP1A [2]): 18.6%
percentage of total FIP1A recovered on the beads (EGFP–Rab11-FIP1C [3]): 11.6%
percentage of total FIP1A recovered on the beads (EGFP–Rab11-FIP1B [4]): 11.8%
percentage of total FIP1A recovered on the beads (EGFP–Rab11-FIP1A [5]): 15.2%
percentage of total FIP1A recovered on the beads (EGFP–Rab11-FIP1C [6]): 15.2%
B1: mCherry–Rab11-FIP1A (natural protein, UniProt Q6WKZ4-1 1-612, looked up)
chain: T2 sequence (looked up)
